Source: the DeepSol protein solubility set

Assay: soluble on expression in E. coli; label from the status in PepcDB or PDB records

| Sequence | soluble on expression in E. coli |
| --- | --- |
| MSVSNTQFNPFGNHETNLKELKLQLEQVTSKSVKQIEDVKGLTVTLERLTEIAKNIPETAIQSLISEIVASFPKCVSVLGEKKPEDLRTASFISLLRRLNQFIQTIADRVTKPFDSDVLKEWAPIFVSLLTGKHSALKENGALLWKKTFGTVKNNLICPEDLRGILDSMPKRYAISVPQSTSSKTDGYFSDDEAMDGLPTSSAAGAGNNFKFPKIKTEVIESQSSFQFSQQPVADEVAEKLLKEQKLKAEETQSPKTSSTETSRRRTSRMALIDEDSCDFVAILTSPATRKNRLTDRQKEKLEEVSGPRTTINYMDEESQNGFVKTEQFKKALTAMNFEVEDESVSAPTSKNSENPEILPIDEIPTVHVESAKSDKTPEPVKKTNKRRRLFHDQPVSAFATESSRKPEIANNDLGEILEKLPEHASTKSPEQKRGRKDSAISCETSDDISDSMKSNDSRTIITQQEHAVEQKSRKKPGRPKNSRNRSETTRKSGRLSAIQNNACVTSESSMSNETGDVEKTDDKKESVQNIPEQEAAEKKEVDTTISDKRLSDTEEAIEENIVKSPPKTPRTPSILRVGKRMSTSSSPMTERKRNRVHFGEESLPVDVVSSPLTPRRRPLAEAAKNPFVEATVAASNSNLSDIQSSTNDSSFYPTLADCRDKIDRILPNLVTLCMKTVLDSAKRSLSAVGVKTVGDFASLSKSDIEKFTWIKGRVVGARNVLMQYEKTRNAERREEIVDGSEEKPMDVADAIPPEIEAVSPSSKDSQSVPMETKDNSPPANEVIAQELPKASPISNTPSVESTQPALNVQKTPEASQSPASPISSNTGSSTFTVDPTPVQKDLSVVLSRKNLAPIFCGGLKNFKKEQLCPQKQCEKAKDAEKSFVEDGRVLHRICVSLSNAHTQNHWPSENSSKLLSNINKASILFKNLVQTRGAGDWDDTDLENDDLSTAESDVATDVDVLVAVYKRFSRHHTSPMANNLPWRSVMECVNEAACLLESIFLTRAPNKGSM | not soluble |
| MSGPAHLPYGGIPTFARAPLVQPDGDWQADVAALGVPFDIALGFRPGARFAPRALREASLRSVPPFTGLDGKTRLQGVTFADAGDVILPSLEPQLAHDRITEAARQVRGRCRVPVFLGGDHSVSYPLLRAFADVPDLHVVQLDAHLDFTDTRNDTKWSNSSPFRRACEALPNLVHITTVGLRGLRFDPEAVAAARARGHTIIPMDDVTADLAGVLAQLPRGQNVYFSVDVDGFDPAVIPGTSSPEPDGLTYAQGMKILAAAAANNTVVGLDLVELAPNLDPTGRSELLMARLVMETLCEVFDHVL | soluble |
| MGSSHHHHHHGSTKYALVGDVGGTNARLALCDIASGEISQAKTYSGLDYPSLEAVIRVYLEEHKVEVKDGCIAIACPITGDWVAMTNHTWAFSIAEMKKNLGFSHLEIINDFTAVSMAIPMLKKEHLIQFGGAEPVEGKPIAVYGAGTGLGVAHLVHVDKRWVSLPGEGGHVDFAPNSEEEAIILEILRAEIGHVSAERVLSGPGLVNLYRAIVKADNRLPENLKPKDITERALADSCTDCRRALSLFCVIMGRFGGNLALNLGTFGGVFIAGGIVPRFLEFFKASGFRAAFEDKGRFKEYVHDIPVYLIVHDNPGLLGSGAHLRQTLGHIL | soluble |
| AARRALIVLAHSEKTSFNYAMKEAAVEALKKRGWEVLESDLYAMNFNPIISRNDITGELKDSKNFQYPSESSLAYKEGRLSPDIVAEHKKLEAADLVIFQFPLQWFGVPAILKGWFERVLVAGFAYTYAAMYDNGPFQNKKTLLSITTGGSGSMYSLQGVHGDMNVILWPIQSGILRFCGFQVLEPQLVYSIGHTPPDARMQILEGWKKRLETVWEETPLYFAPSSLFDLNFQAGFLLMKEVQEEQKKNKFGLSVGHHLGKSIPADNQIKARK | soluble |
| MGSDKIHHHHHHMKYTELLQLQTFFSRFKKIDFIKRINDNILELSFDRERFIFDLTRAMSAIYTAKFNAKNYNAPFDFMLKKYFSNAFIKEVKVLEGNRILCFSVKANKAYKSYESKIYFEFTGKNTNVILTDEKDLIIEALRHIDKSYRVVKPNVILESLKPYKMDENFEEIKDFADYFSRKFTSIYESKIKQIKNLKLAQVDKKIQNLQELFSSLDEENSLLLKALEYRKRADVLFANLSVLKDYEREFKLDDFEGKELEFKLEFNPKQSANLYYKNAKKLEQKAKNLNIQRQNLKEKLDFTLSLKELLLQAKSEIELEILLPKKNSKKNQDHKQEDLVANFYFNEFKICVGKNEKGNEFLLKNAKKDDLWLHVRDIPSAHTLIVSNKQKISLDVIEFAARLCVSFSKLKKGSYWVDYTLKNFVKVQQKAFVNYTNFKSINITKD | not soluble |
| MSLGDVEEWVNPDQSTSQPVTKAALVEKTVAMTEAGKFASFFQEGELETIQKLRVSGPLDASDIDAIRYQMPRLEVLDMKEVELIESDKTYGAEDHREHYKLKKGVITPKMLQCFSLLVTLVLPKDITEIEDYGIYGNKNLVSIEIPVTVKKVGAHVFKSCSSLQKVDLPNVETLGERVFESCGKLTKVTLSPDLQVIPDYAFQYCGSLADVPLPSSLVSIGVSAFRDCSSLVDVPLPSSLVSIGTGAFANCKSLTSVDMPNTVTTLENGTYQNCTNLKDVKLSDNLKRIGAENDHYSGSSFEGCQNLASIDIPASVSWINSFSFKNCVNLKTVTFHEGLQVIGGKSFQGCSSLVSVSIPKSVTSIGDESFEYCSSLNEMNLSQEGTPEINSSAFAYSGLSSITIPETVTSVGGGILNGCSRLTSIFWECNRDVPNIIDLNSTSCLLYLSHDVKCPSTWKNVIEPGGVAQTIVLKNEKRYLCPKAFTANKISYTREFTMKTIPGKAAGWQTIILPFSVQTITDKDGNRLAPFMAEGDGIWKRFWLRELQADGTYKDVTAIEANKPYLIAMPNAEEYASEYCISGNVTFEADNVSLGETPEIVPTDGGAYSMYGTYDWVTGTRKVYALNLDNWSDGSVYYEKGSVFVPSLRDVAPFECYLQNNNPSASTRGFIGIVGSHASTRAGEGHHHHHH | soluble |
| MSQYGFVRVPREVEKAIPVVNAPRPRAVVPPPNSETARLVREYAAKELTAPVLNHSLRVFQYSVAIIRDQFPAWDLDQEVLYVTCLLHDIATTDKNMRATKMSFEYYGGILSRELVFNATGGNQDYADAVTEAIIRHQDLTGTGYITTLGLILQIATTLDNVGSNTDLIHIDTVSAINEQFPRLHWLSCFATVVDTENSRKPWGHTSSLGDDFSKKVICNTFGYN | not soluble |
| MGSDKIHHHHHHMLGFRALAKPGAISMWVPQYSHQTQPVYLMIADALEQDIESGRLAEGDRLPTLKDLAEALNVTPGTVGRAYDEAAKRGLVAGEVGRGTFVRQLRQPLPAPSVPTPVAGESSQIDLSIIKPNDAHMSEWLGTAISELAASSDLGQVLDYVTEGGHTSHKQAGATWIQRWLPDARWQQVVLTAGAQHGLLVAISSLSKSDDVVLCESLCYPGIISLAHSLGRRLRGVAMDEHGLIPEALRAACLEHRPSLLVCVTTHQNPTNSIMPPARRQAIAEIAREFDLFIVDDDIYGFLEPSPDYKPLAAYAPERSVYLTSLSKSVLPALRIGYLYAPPQTLSRLSSMVRSSVWMPSPLMAQLASNLINSGKADQLVRMQQQEAAARQHMAREILGQYKIRSQPHSFHIWLELPEPWTSDEFANLARDNGVTVVSGSQFLPERSHATSGVRIALMAPSRQELGFALTKLASLLDSPEPRLFY | not soluble |
| MSLELDAVSRSYKRWAPIYDFSFGKVSESPRRRTAAHVNARGGRVLEVGVGTGLSLPLYSHRVAVTGIDFSHEMLARAREKVEEMGLEPVKELRQMDARELDFPDETFDTVVAMFLVSVVPEPERVVSEMARVCRKGGEVVIVNHFARDKGPLAAVEKALARFENTLGWHSDFAIERVTADPRLEVVEQTPMSPGGLFTFLRFQRREGHHHHHH | soluble |
| MKVGIVGGGIVGLFTAYYLAKEGIKDIIIYEKGFLGAGSIHAAGLIEPYRFDKINTLSMIKKMLKYKMNGSTDIKEVDKLWLVELIKNLEKDPPGEAWDTMREMAKFSLSEYKRIAEEKNDFDYHEDGLLELYYNSKEFESGIEDEKKSPFNPKFEIEEIKGFAGGLFFPELSRISTEKFIDRISREIVSNIKVKNEEVIKVSDEGYIDGEKYDLVVVAAGIWSRILKIPLTAFKGYGYRVKGVSKLNRAAVIVDYGLAISPLSDHIKITGGFDADFSIDSKRAEDFLKKAEELVDIQYIIDLNMGFRPCSPDGFPVIGKRNNLVLVTGACRLGWSYGPAMGRYATDLALGKAKDLGYISRYYHELEHHHHHH | not soluble |
| MRLLILGGTGDAAELSAKVATIPGIEAIASLAGRTREPSLPSGNVRVGGFGGAAGLADYLRQMQVDVLIDATHPFAAQISENAALAADEVEIPRLMLIRPPWVKVAGDRWIEVDTTSAAAAILKNQAKRVFLTVGRQELSAFAHLHDIWFLMRMIDPPAADALVPPGVILCDRGPFTLPQERDILIQHNIDTLVSKNSGGDATYAKIIAARELGVQVVMVNRPVVPACEQVTDADAAVAWLLEK | not soluble |
| ASYWSLQDILLRQGYRENLHPDDLIEGYRELLADSVHRCLQSDVEVGLFLSGGIDSAAVAHFAAEKQDLHTFTVLSQSTFTNEDAKYAHWLAKDLHLPNHQVLYQLGNDELLQPESYKHLLWICETPFCGPEQLYKFHLHKYAKAIRPNLKVMLTGQGSDEFNGGYSTTLSPAENPSWEGFIESVNTMEMNRLHRLQGNIFRVWEEHFGLSPINLSYLKSNDSSQADPWQSYVLTKYRDLQMYNCWHEDRIAAANHIENRVPFLDHRLVEWVCGIPDGLRKDLLWDKSVLRKSLTNELHTSYTHRPKVPFFYGKDVRYTHKMMFHLLKKNNYQLIEEAFSHSDASSIIQVEHIHAIM | not soluble |
| MNYSLKQLKVFVTVAQEKSFSRAGERIGLSQSAVSHSVKELENHTGVRLLDRTTREVVLTDAGQQLALRLERLLDELNSTLRDTGRMGQQLSGKVRVAASQTISAHLIPQCIAESHRRYPDIQFVLHDRPQQWVMESIRQGDVDFGIVIDPGPVGDLQCEAILSEPFFLLCHRDSALAVEDYVPWQALQGAKLVLQDYASGSRPLIDAALARNGIQANIVQEIGHPATLFPMVAAGIGISILPALALPLPEGSPLVVKRITPVVERQLMLVRRKNRSLSTAAEALWDVVRDQGNALMAGREGDPLYQI | soluble |
| MAHHHHHHMNFEDDDDIVIPGEFLGLQAEYINGNNTYLLKDEIRSSILGQKIINKNNDKKTIISVYNLKPPSLYLPKIGDIVICKVQRVSFHMIYCYILSSHNIFTKNALKGFILKSDIHINEGELGDNFICFKQGDIIKAKVLSIGQYSSYKLSTVGSELGVIAAFNQKGEILRPVAWNLVLNINDMTFERRKASNDFSLLL | not soluble |
| MAHHHHHHMSLSIHTNYGDIKIELFCYEVPKTCKNFLALCASGYYDNTKFHKNIKGFAIQGGDPTNTGKGGQSIYGKYFEDEFDSTLKHDKRGIVSMANKGKPNTNGSQFFITYSRQPHLNGIYPVFGKVIDGMDVLSVLENEPVGEKSRPIKDIIIETITIHANPIAEEESVDN | not soluble |
| FPAISEHFTEDYSSHTEQMLDLVLDSTDMRIEDGKRINPAFMFAAMLWYPLCALADKLMDQHNLCHYDAIMEASNIILDDQVRTIAIPRRHTATIREIWQLQLRLPRRNGKRAFRLMELNKFRAGFDFLEMRGEIEGGDTLKLAKWWETFQNAGREMRQAMAADLDGQAPKSGQRRRKTFRKKKSKPKS | not soluble |
